In this assay the target is T1, epidermal growth factor receptor (EGF-R) (UniProt P00533 25-1210).
T1 construct: also called EGF receptor
As to the kind of experiment: co-immunoprecipitation with mAb 108.1 from 293 transfectants, immunoblot with anti-PTP antisera. As to the method:
To standardize the experimental parameters, three chimeric RPTKs having EGF-R extracellular domains were tested (HER1-2, EK-R, EP-R) (Seedorf, K. et al., *J. Biol Chem.* 266:12424 (1991)), as was EGF-R itself (FIG. 8).
The precipitates were extensively washed, boiled in SDS sample buffer, and analyzed by 7.5% SDS-PAGE.
For orientation: Immunoblotting shows a protein as a band on a membrane.

B1: PTP 1C protein tyrosine phosphatase (mouse) (enzyme)
chain: not shown
notes: Overexpressed transiently in human 293 cells
With B1, the binding result is on record as “no binding”.

These data come from patent publication US6548641 (MAX PLANCK GESELLSCHAFT ZUR FORDERUNG DER WISSENSCHAFTEN E V, dated 2003).
